Source: the RNAGym collection of RNA variant scans (doi:10.7554/elife.80360)

B1: HDV Ribozyme (parent)
chain: GGCCGGCAUGGUCCCAGCCUCCUCGCUGGCGCCGGCUGGGCAACAUUCCGAGGGGACCGUCCCCUCGGUAAUGGCGAAUGGGACCCA

Variants of: B1
Test: self-cleavage, relative activity (ratio to wild type); higher = more cleavage; co-transcriptional

Variant	self-cleavage
G39U A51U	0.611
G39C C44U	0.0707
C41A A77C	0.172
C41A A77U	0.332
C41A A77G	0.628
G39U A71U	0.431
G40C A87G	0.215
G40A C85A	0.859
C41U C58U	1.17
C41U C63A	0.983
A42C A56C	0.356
A42C A56U	0.332
C41A A56C	0.937
G39U A43G	0.0811
C41U G80C	0.188
C41U G80U	0.174
G39U C62G	0.408
G39U C62A	0.623
G40C U72G	0.158
C41G C63A	0.791
G40C A42C	0.111
G40C A42U	0.151
G39U C58A	0.665
G40U G81C	0.149

Variant	self-cleavage
A42C C58U	0.322
G40C A51G	0.288
G39A G73A	0.0801
G39A G73U	0.0845
C41G U72G	0.795
G40U A71C	0.327
C41U G54A	0.958
A42C C62A	0.365
G40A C57A	1.18
G40U G54A	0.694
G39A U47C	0.208
G39U C49A	0.604
G39U C49U	0.649
G40C C64U	0.223
G40C A56C	0.197
G40C A56G	0.237
C41A C49U	0.91
G40U C85G	0.612
A42C C84U	0.224
A42C C84G	0
G39U C66A	0.739
G39U C66G	0.831
G40A A70C	0.849
C41G A70C	0.475

Variant	self-cleavage
C41G A70G	0.929
C41G C44A	0.192
G40A U60G	0.916
G40C C48U	0.326
G40U C63G	0.348
G40U C63U	0.866
G39A C66U	0.472
C41A G73C	0.554
C41G U69A	0.609
C41G U69C	0.772
G40C C84A	0.0831
C41A C61U	0.76
G40A A56U	1.02
G40C C41G	0.222
G40C C41U	0.629
C41A G76C	1.06
G40U A77U	0.212
G40U A77C	0.145
G40U A87U	0.667
G40C U69G	0.361
G39C U65C	0.374
G39C U65G	0.262
G40U G55U	0.621
A42C C44G	0.217

Variant	self-cleavage
G38U U65C	0.415
G39U A83G	0.444
G40A U69A	0.892
G40A U69C	0.876
C41U C61A	1.12
A42C G50A	0.325
C41U A51U	0.932
C41U A51C	0.916
G40A G53U	0.823
C41G A77G	0.268
C41U C66G	0.926
C41A C62A	0.77
C41G G53A	0.485
G40A A77C	0.427
C41U C62U	0.92
C41U U79G	0.369
C41U U79A	0.98
G39A C63G	0.352
G39A C63A	0.538
G39C U79A	0
G40U A70C	0.391
C41G C66U	0.683
G39A A45U	0.389
C41A A83C	0.312

Variant	self-cleavage
G39U C85G	0.69
G39C U69G	0.133
C41G A56C	0.942
G39C G68C	0.339
G40C G74A	0.0978
G40U G80C	0.0692
G39U G80C	0.181
G39U C44G	0.113
C41A C85U	0.849
G40C A71C	0.121
G39A G50U	0.441
G39A A77C	0.108
G39A A77U	0.176
G38U G81A	0.128
G38U G81C	0.0678
G40A A42U	0.802
G40A C61U	0.765
G40A C61A	0.839
G39C G67C	0.232
G39C G67A	0.134
G39A C44A	0.0405
G39A C44G	0.108
C41U A87U	1
G40A A43U	0.446

Variant	self-cleavage
C41U A71C	0.644
C41U A71G	1.06
G39A A70C	0.277
G40U U65A	0.808
G39U C75G	0.0978
G39U C75A	0.166
G39U C75U	0.0923
G40C U65C	0.155
G39A G81C	0.113
G39U G81U	0.185
G39U G81C	0.119
G39C C57U	0.345
G39C C57G	0.415
G39C G40U	0.487
G39C G40C	0.215
G39C G53A	0.308
A42C C48G	0.229
G40U U72G	0.23
C41U U46G	1.02
G40U G52A	0.513
G40U G52C	0.891
C41U A83G	0.712
A42C C64G	0.277
G39C G76A	0.289

Variant	self-cleavage
G40A A87C	0.981
C41U G68A	0.743
C41U G68C	0.636
C41G C64G	0.536
A42C C75G	0.0852
A42C C75U	0.148
G38U U46A	0.106
G39A A42U	0.272
G39A A42G	0.0292
C41A G59U	1.11
G40A C64U	0.925
G40A A71C	0.485
G39U U65C	0.752
G40C C86U	0.372
G40A U46G	0.554
G40U A43G	0.54
C41U G76C	0.861
C41U G76U	0.897
C41G C61A	0.928
C41U C84U	0.765
G38U G82A	0.0886
G40U A42G	0.306
C41A A51U	0.981
G39U C41A	0.719

Variant	self-cleavage
G40C C61G	0.241
G40U C49A	0.787
G40U C49U	0.817
G40U U69G	0.727
G39C G81A	0.185
G39C C66U	0.136
C41G G82A	0.0811
G39U C64U	0.597
G39U C64G	0.845
G40U G73U	0.424
C41A G54C	1.08
C41A G54A	1.01
C41G A87G	0.772
G39U C63A	0.598
G40U A45C	0.295
G40U U47A	0.427
G40A G54A	1.04
G39A G68C	0.441
G39A G68U	0.554
G40C U79C	0.0509
C41A U60A	0.979
C41A U60G	0.522
G39U G73U	0.211
G40C G59C	0.229

Variant	self-cleavage
C41G G73A	0.712
C41G G73C	0.877
A42C C57A	0.373
G39C C41U	0.554
G39C C41A	0.802
C41A C63G	0.623
C41A C63U	1.04
C41A U69A	0.831
G40U C44G	0.194
G39C A70U	0.0308
G39C A70G	0.151
C41A C86U	0.904
C41G A42C	0.353
C41G A42G	0.332
C41A G53C	0.848
C41A G53U	0.969
G40U C57U	0.712
C41A C57U	0.909
C41G G52U	0.554
C41G G52A	0.562
C41G G55C	0.723
C41U C48U	1.02
A42C G59C	0.397
C41U C49A	0.563

Variant	self-cleavage
C41U C49G	0.317
A42C G54A	0.271
C41G G59U	0.969
C41U U65G	0.976
C41U U65C	0.954
G40C G76A	0.163
C41A G52U	0.772
C41U U60A	0.815
C41U C75G	0.208
C41G G68A	0.45
C41G G68C	0.483
G40U U79C	0.185
G40U U79G	0.243
G39C G73C	0.151
G39A U46G	0.0923
G39A U46C	0.181
G39A C75U	0.178
G39A C75A	0.0755
C41G A83C	0.123
C41A A71C	0.499
G40A G52C	0.986
G40C G81U	0.162
G39A C86A	0.53
C41A G74C	0.366

Variant	self-cleavage
G39C C62G	0.0573
C41A G55A	0.937
G39U G76U	0.819
A42C C85A	0.18
G39A U72C	0.135
G40C U47C	0.243
C41A C84A	0.435
G40A C75A	0.0831
G40A C75G	0.305
G40A U65C	1.12
G40A U65G	0.601
G39A G55U	0.356
G39A G55A	0.683
C41G C57G	0.804
G40C A83C	0.0755
G39C U47A	0.243
C41G G54C	0.849
G39U G52C	0.831
C41G U46G	0.231
C41G A71G	0.554
G40A G74A	0.726
A42C A83U	0.122
A42C A83G	0.129
G40U G50U	1.01

Variant	self-cleavage
G40A G81A	0.475
G40U C62G	0.467
A42C G53C	0.297
A42C G53U	0.231
G39U U69A	0.492
G39U U69C	0.769
G39A G67A	0.453
G39U A87U	0.683
G39A A51C	0.389
G39C A78G	0.0573
G39C A78C	0.125
G39U A77G	0.564
G39U A77C	0.233
G39U G68U	0.56
G39U G68A	0.841
G40U A56U	0.801
G40U A56G	0.677
G40C A78U	0.122
G40C A78G	0.318
G39A C85U	0.465
G39A C85A	0.332
A42C G52C	0.359
G40U A83U	0.0936
G39U A56G	0.659

Variant	self-cleavage
G40C A43U	0.0639
C41U A70G	0.876
G39C C49U	0.166
G39C C49A	0.237
G39A C49G	0.366
G39A G40C	0.459
G39A G40U	0.57
G39A G40A	0.786
G39C C58A	0.521
G39C C58U	0.0923
A42C A45U	0.306
G40A C49U	0.95
G40A C49A	0.95
C41U G55U	1
G40U C41A	0.843
G40C C75U	0.0652
G40U U46G	0.136
C41A G81C	0.169
A42C G55C	0.243
C41U G52U	0.868
G39C C84U	0.196
G39U G40U	0.451
G39C A87U	0.229
C41G G67A	0.456

Variant	self-cleavage
G40A A78C	0.233
G40C G55U	0.205
G39C A77G	0.243
C41A U65G	0.95
G39U C57A	0.941
G39U C57U	0.831
C41A A43G	0.808
G40A U72A	0.446
A42C A78G	0.317
G40A G68A	1.01
G40A G68U	0.997
G39A A83C	0.277
G40U G53C	0.519
G39U U47C	0.393
G40A A51C	0.984
G40A C58G	1.02
G40C C44A	0.0468
G40C C44U	0.0627
G40C C44G	0.106
G39U G82U	0.155
C41U C57G	1.09
G40C C63G	0.138
